Measurements published in patent publication US11466255B2, “Methods and compositions for converting non-endocrine pancreatic tissue into insulin-producing cells” (UNIVERSITY OF MIAMI, priority 2015, dated 2022).

Assays:
Format in all cases: cell-based, human
hNEPT [1] = experiment: C-peptide content (ELISA, normalised to DNA) of hNEPT; details: for induction of C-peptide compared to t=0: n=4, P=0.06
Method: (§1) hNEPT culture: Human islets were isolated at the DRI's cGMP facility following methods already described54, and hNEPT samples (2-4 ml) were obtained as an isolation byproduct. The cells were washed and seeded on tissue culture-treated plates in FBS- and trypsin inhibitor-supplemented RPMI 1640 medium (Gibco-Life Technologies, Grand Island, N.Y.). After 48 h, floating cells were removed with fresh medium replacement. The following day, cultures were either treated with 100 ng/ml BMP-7 (ProSpec-Tany TechnoGene; Ness Ziona, Israel) or remained in the starting medium as controls. Cells were allowed to grow 4-5 days and then the serum-containing medium was replaced by serum-free Advanced RPMI 1640 (Gibco-Life Technologies, Grand Island, N.Y.). Four to five days later the cells were either subjected to static incubation to evaluate their ability to respond to changing glucose concentration or collected for further assessments (such as C-peptide content, immunohistochemistry or cellular composition) or transplantation.
(§2) Glucose-stimulated insulin release (GSIR) and total insulin determination: GSIR was performed in six-well plate cultures. BMP-7-treated samples and untreated controls were washed twice with DMEM medium containing 2.5 mM glucose (Low glucose medium or L-medium). Upon addition of 2 ml of the same medium, the cells were cultured for 1 h at 37° C. to bring their insulin secretion to baseline. After 2 more washes, 1 ml of L-medium was added and the cells were returned to the incubator for 1 h. At the end of incubation period, the medium was collected and the cells exposed for 1 h to 1 ml of 20 mM glucose DMEM medium (high glucose medium or H-medium). After the collection of the H-medium supernatant, the cells were washed three times with L-medium and cultured again in low glucose conditions for 1 h. As before, supernatant was collected at the end of the incubation period. The second low glucose incubation is necessary to confirm that the cells are responding to glucose concentration changes in a physiological manner and not dumping insulin. After the last incubation, the cells were collected, washed in PBS and lysed with 1 ml of T-Per (Thermo Scientific, Rockford, Ill.). The lysates and the supernatants from GSIR test were evaluated with ELISA for C-peptide content (Mercodia, Uppsala, Sweden) following manufacturer's instructions. DNA content of the lysates was used to normalize the results (Pico-Green dsDNA Assay Kit, Life Technologies-Molecular Probes, Grand Island, N.Y.).

hNEPT [2] = experiment: hNEPT culture exposed to BMP-7: cluster/colony formation and DNA content
Method: Fresh hNEPT preparations were allowed to attach to tissue culture-treated plates for 48 h and subsequently exposed to BMP-7. The rationale behind the use of BMP-7 was that it may help reduce the incidence of EMT in cultured pancreatic exocrine tissue, as EMT has proven an obstacle for the formation of endocrine cells from exocrine cells in a similar setting^7. Control aliquots were cultured in the same conditions but without BMP-7. […] The growth of the colonies in the BMP-7 group was followed by in situ live cell imaging (Incucyte Zoom) (FIG. 1b and FIG. 8). This increase in size was paralleled by an average increase of 4.8-fold in DNA content from the time of attachment to day 12 (n=2), which further evidenced active cell proliferation.
hNEPT culture: Human islets were isolated at the DRI's cGMP facility following methods already described54, and hNEPT samples (2-4 ml) were obtained as an isolation byproduct. […]
Real-time colony growth assessment: In order to observe the formation and growth of the colonies we used an IncuCyteZOOM EssenBiosciences instrument (Ann Arbor, Michigan) within a Symphony Incubator purchased from VWR (Atlanta Ga.). The cells remain in their own culturing flask or plate, where growth can be observed and quantified over time. […]

hNEPT [3] = experiment: Glucose-stimulated insulin secretion (GSIS) and perifusion; details: day 12; 2.5 mM vs 20 mM glucose
Method: as §2, with “After the last incubation, the cells were collected, washed in PBS and lysed with 1 ml of T-Per (Thermo Scientific, Rockford, Ill.).” left out, “DNA content of the lysates was used to normalize the results (Pico-Green dsDNA Assay Kit, Life Technologies-Molecular Probes, Grand Island, N.Y.).” left out
Perifusion studies: Perifusion was performed as described58. […] Insulin release was determined with the Human Insulin ELISA Mercodia Kit (Uppsala, Sweden) following the manufacturer's instructions.

hNEPT [4] = experiment: TLDA qRT-PCR gene expression in BMP-7-treated hNEPT; details: BMP-7-treated vs untreated control
Method: The expression of 43 genes (including epithelial, acinar, islet and mesenchymal cell markers) was studied in hNEPT preparations (n=8) treated with BMP-7 and untreated controls at the same time point. […] GCK, MAFA and NKX6.1, as well as islet development markers HNF1B and NEUROD1 were also elevated.
as §1
Quantitative Real Time RT-PCR: Samples were washed in PBS and resuspended in RNA later (Life Technologies—Ambion, Grand Island, N.Y.). RNA was extracted with the mirVana kit (Life Technologies-Applied Biosystems, Grand Island, N.Y.). 2 ng/μl of RNA was used for cDNA synthesis using High-Capacity cDNA Kit (Life Technologies-Applied Biosystems, Grand Island, N.Y.). Quantitative RT-PCR was performed with TaqMan assays (Life technologies—Applied Biosystems, Grand Island, N.Y.) following manufacturer's instructions. RNA expression was calculated as Relative Quantification (RQ) by Applied Biosystems software using the formula RQ=2−ddCT (ddCT=dCT of the sample−dCT of the control). dCT is the number of cycles normalized by endogenous control. Individual reactions were performed with a 7500 Fast Real Time PCR system (Life Technologies). Some experiments were performed using custom-made Taqman® Low Density Microarray (TLDA) cards containing 43 target genes and 3 endogenous genes (ubiquitin C, 18S rRNA and beta actin) and ran in a 7900 Real time PCR cycler (Life Technologies). Cts >35 were considered undetermined.

B1: BMP-7: 35 kDa homodimeric protein of the TGF-β superfamily; FDA-approved agent; human mature chain SEQ ID NO:1/2 (protein, listed as Homo sapiens)
chain: IRSTGSKQRSQNRSKTPKNQEALRMANVAENSSSDQRQACKKHELYVSFRDLGWQDWIIAPEGYAAYYCEGECAFPLNSYMNATNHAIVQTLVHFINPETVPKPCCAPTQLNAISVLYFDDSSNVILKKYRNMVVRACGCH
modifications: homodimer; human mature chain of BMP-7 (NCBI Reference Sequence NM_001719.2) comprising peptide from 293-431
C-peptide production induction vs. t=0 (hNEPT [1]; BMP-4 vs BMP-7 comparison, n=6, P=0.43): 156±32 fold
induction of C-peptide compared to t=0 (hNEPT [1]; BMP-7 alone, dorsomorphin experiment): 314.1±152 fold
induction of C-peptide compared to t=0 (hNEPT [1]; BMP-7 in the presence of dorsomorphin (DM)): 107.8±34.3 fold
C-peptide induction vs. t=0 (hNEPT [1]; THR-123 vs BMP-7 comparison, n=4, P=0.25): 261±102 fold
average increase in total C-peptide vs. the initial material (hNEPT [1]; day 12 vs day 0, 8 independent hNEPT preparations): two orders of magnitude
formation of cellular clusters (hNEPT [2]; 100 ng/ml BMP-7, course of 12 days, controls became mesenchymal-like monolayers): induced the formation of abundant cellular clusters
average increase in DNA content from the time of attachment to day 12 (hNEPT [2]; BMP-7 group, n=2): 4.8 fold
glucose responsiveness of induced clusters (hNEPT [3]): glucose responsive
GCK, MAFA, NKX6.1, HNF1B and NEUROD1 expression (hNEPT [4]): elevated
extra-insular genes KRT-19, CPA1 and PNLIP expression (hNEPT [4]): up-regulation
ZEB2 expression (up-regulated) (hNEPT [4]; P<0.05): 1.6 fold
E-cadherin (CDH1) expression (up-regulated) (hNEPT [4]; p<0.01): 6 fold
EMT marker ZEB1 expression (down-regulated) (hNEPT [4]; p<0.01): 0.4 fold
PDX1 gene expression, average increase (hNEPT [4]; same time point, n=8): 29 fold
glucagon gene expression, average increase (hNEPT [4]; same time point, n=8): 92 fold
insulin gene expression, average increase (hNEPT [4]; same time point, n=8): 40 fold
pancreatic polypeptide (PPY) gene expression, average increase (hNEPT [4]; same time point, n=8): 14 fold
somatostatin (SST) gene expression, average increase (hNEPT [4]; same time point, n=8): 28 fold
